The record followed here is patent US20110269676A1.

This experiment concerns the target recombinant gp120 (HIV (strain not stated)). In words: SPR (BIAcore3000), gp120 immobilised on CM5. (In general: SPR reads the build-up and loss of mass on a sensor chip optically.)

By Kd is commonly meant the equilibrium constant for the complex coming apart. As a reminder, the koff is the rate constant with which the complex falls apart. As a reminder, the kon is a measure of how fast the partners come together. For “2D (D1D2 domain of soluble CD4) (from UniProt P01730 26-210) (receptor)”, the Ka turned out to be 4.8e+07 M⁻¹, the Kd was 21 nM, the koff was found to be 0.00047 s⁻¹ and the kon worked out at 22000 M⁻¹ s⁻¹.
